In paper PMC4289673 (Proteins, 2014):

Biological target: the molecule itself
Assay: crystal structure

B1: R47A hACMSD (enzyme)
chain: not shown
B1: binds.
